Paper PMC4409310, “Substrate Recognition and Modification by the Nosiheptide Resistance Methyltransferase”
Numbering of substitutions follows the chain as printed. Names may count otherwise.

B1: 29 nt RNA A1067G (structured_RNA)
RNA: GGAUGUUGGCUUGGAAGCAGCCAUCAUUU
B2: 29 nt RNA wt A1067 (structured_RNA)
RNA: GGAUGUUGGCUUAGAAGCAGCCAUCAUUU
B3: 29 nt RNA A1067C (structured_RNA)
RNA: GGAUGUUGGCUUCGAAGCAGCCAUCAUUU
B4: 29 nt RNA A1067U (structured_RNA)
RNA: GGAUGUUGGCUUUGAAGCAGCCAUCAUUU
B5: 58 nt RNA A1067G (structured_RNA)
RNA: GGCCAGGAUGUUGGCUUGGAAGCAGCCAUCAUUUAAAGAAAGCGUAAUAGCUCACUGGCU
B6: 58 nt RNA A1067U (structured_RNA)
RNA: B5 RNA with G18U
B7: 58 nt RNA A1067C (structured_RNA)
RNA: B5 RNA with G18C

Legend:
His-NHR = His-NHR (Streptomyces actuosus, UniProt P52391 1-274); assay: fluorescence anisotropy; 5 mM Mg2+; Anisotropy: 25 mM HEPES-KOH pH 7.5, 25 mM NH4Cl, 5 mM MgCl2, 5 mM DTT, 2.5 uM RNA, 0-8 uM NHR, temperature not stated; EMSA: 25 mM HEPES-KOH pH 8.0, 25 mM NH4Cl, 5 mM MgCl2, 5 mM DTT, 4 C, 1 h, 6-10 uM RNA; settings: protein: recombinant, tags: N-terminal His6 (pET-28a), chain copies: 2
[1] = target: HA-His-NHR-R135A (His-NHR-M) (Streptomyces actuosus, UniProt P52391 1-274, R135A); assay: EMSA; 5 mM Mg2+; R135A homodimer, less efficient than heterodimer; Anisotropy: 25 mM HEPES-KOH pH 7.5, 25 mM NH4Cl, 5 mM MgCl2, 5 mM DTT, 2.5 uM RNA, 0-8 uM NHR, temperature not stated; EMSA: 25 mM HEPES-KOH pH 8.0, 25 mM NH4Cl, 5 mM MgCl2, 5 mM DTT, 4 C, 1 h, 6-10 uM RNA; settings: protein: recombinant; tags: HA, N-terminal His6; chain copies: 2; label: 3' fluorescein (anisotropy); none (EMSA, SYBR Gold); hairpin
[2] = target: HA-His-NHR-R135A subunit of heterodimer;Flag-Trx-NHR subunit of heterodimer (Streptomyces actuosus;Streptomyces …, UniProt P52391;P52391 1-274;1-274, R135A|); assay: EMSA; 5 mM Mg2+; WT/R135A heterodimer, more efficient than R135A homodimer; Anisotropy: 25 mM HEPES-KOH pH 7.5, 25 mM NH4Cl, 5 mM MgCl2, 5 mM DTT, 2.5 uM RNA, 0-8 uM NHR, temperature not stated; EMSA: 25 mM HEPES-KOH pH 8.0, 25 mM NH4Cl, 5 mM MgCl2, 5 mM DTT, 4 C, 1 h, 6-10 uM RNA; settings: protein: recombinant;recombinant, tags: HA, N-terminal His6;Flag, thioredoxin, copies: 1;1, label: 3' fluorescein (anisotropy), none (EMSA, SYBR Gold), hairpin
[3] = label: 3' fluorescein, folded single strand

Row | Binder | Kd (His-NHR; label: 3' fluorescein, hairpin) | Kd (His-NHR; [3]) | also measured
1 | B1 | 370 ± 30 nM |  | 
2 | B2 |  |  | binding result [1]: binds; binding result [2]: binds; Kd (His-NHR; label: 3' fluorescein (anisotropy), none (EMSA, SYBR Gold), hairpin): 370 ± 30 nM
3 | B3 | 460 ± 40 nM |  | 
4 | B4 | 630 ± 80 nM |  | 
5 | B5 |  | 770 ± 20 nM | 
6 | B6 |  | 910 ± 20 nM | 
7 | B7 |  | 800 ± 20 nM | 
